Source: article PMC7721705, “The G protein coupled receptor CXCR4 designed by the QTY code becomes more hydrophilic and retains cell signaling activity” (Scientific Reports, 2020)

Biological target: the molecule itself
Test: dimer bands on SDS-PAGE (Western blot with rho1D4 antibody, silver stain); immunoaffinity-purified receptors in 0.01% or 0.2% detergent; Novex 10% Bis-Tris gels, samples kept at room temperature 10 min, not boiled

B1: CXCR4^QTY29 with C-terminal GSSG linker and rho1D4 tag (receptor, UniProt P61073 1-352, looked up)
chain: MEGISIYTSDNYTEEMGSGDYDSMKEPCFREENANYNKTFLPTIYSIIYQTGTVGNGLVILVMGYQKKLRSMTDKYRLHLSTADLQFVTTLPYWATDATANWYFGNFLCKAVHVIYTVNLYSSVLILAFISLDRYLAIVHATNSQRPRKLLAEKVVYVGVWTPAQLLTTPDYTFANVSEADDRYICDRFYPNDLWVVVFQFQHIMVGLILPGIVILSCYCIIISKLSHSKGHQKRKALKTTTTLIQAFFACWQPYYTGISIDSYILLEIIKQGCEFENTVHKWISTTEAQAFYHCCTNPTQYAYLGAKFKTSAQHALTSVSRGSSLKILSKGKRGGHSSVSTESESSSFHSS
notes: CXCR4, UniProt P61073, with 29 QTY replacements of lipid-facing transmembrane residues; also called QTY variant; source: E. coli cell-free reaction mix (pIVex2.3) with Brij-35; captured from crude supernatant (SPR); not shown: rho1D4 tag (after a GSSG linker), C-terminal, kept
binding result: binds
